Results as given in paper PMC10643566, “Insights into the mechanism of SARS-CoV-2 main protease autocatalytic maturation from model precursors” (Communications Biology, 2023).

Tests used:
[1] = target: mature MPro^R298A (SARS-CoV-2); test: enzyme kinetics (K_dimer from kcat/Km and the slope of rate vs the square of the protein concentration); FRET substrate at 200 µM, buffer B (25 mM Tris-HCl, pH 7, 50 mM NaCl, 1 mM TCEP), 28 °C; kcat/Km determined with equimolar GC373; dimer to monomers
[2] = target: mature MPro^E290A (SARS-CoV-2); test: as above

Substance | Kd [1] [µM] | Kd [2] [µM]
mature MPro^R298A (enzyme) | 7.13 | –
mature MPro^E290A (enzyme) | – | 353
